Laboratory results reported in patent publication US20250163127A1.

Key:
CD28 (human) [1] = biological target: CD28 (human) (UniProt P10747); test: flow cytometry, transfected cells
CTLA4 (human) = test: flow cytometry, CHO cells stably expressing CTLA4
CD28 (human) [2] = biological target: CD28 (human) (UniProt P10747); test: flow cytometry, Jurkat cells (CD28)
PD-L1 (human) = test: flow cytometry, CHO cells stably expressing PD-L1
Chain of PD-L1 (human) (chain, as listed by the source): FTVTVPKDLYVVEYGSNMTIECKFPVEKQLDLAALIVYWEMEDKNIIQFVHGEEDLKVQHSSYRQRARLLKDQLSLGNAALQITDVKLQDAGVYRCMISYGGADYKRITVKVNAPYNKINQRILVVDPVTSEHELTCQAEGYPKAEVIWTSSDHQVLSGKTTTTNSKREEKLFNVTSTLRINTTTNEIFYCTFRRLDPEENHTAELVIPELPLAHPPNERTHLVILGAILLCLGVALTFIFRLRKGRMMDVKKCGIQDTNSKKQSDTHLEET

Chain of CTLA4 (human) (chain, as listed by the source): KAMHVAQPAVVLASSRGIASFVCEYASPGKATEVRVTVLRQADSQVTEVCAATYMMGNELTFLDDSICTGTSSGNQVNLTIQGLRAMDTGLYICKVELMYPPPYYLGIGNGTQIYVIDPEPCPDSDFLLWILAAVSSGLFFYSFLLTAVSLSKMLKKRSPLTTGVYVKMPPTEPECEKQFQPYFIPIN

| MFI (CD28 (human) [1]) [MFI] | MFI at 33.3 nM (CD28 (human) [2]) [MFI] | MFI at 33.3 nM (PD-L1 (human)) [MFI] | other results | Binder |
| --- | --- | --- | --- | --- |
| 1760 |  |  |  | ICOSL ECD-Fc N84Q (Fc fusion) DTQEKEVRAMVGSDVELSCACPEGSRFDLNDVYVYWQTSESKTVVTYHIPQNSSLENVDSRYRNRALMSPAGMLRGDFSLRLFQVTPQDEQKFHCLVLSQSLGFQEVLSVEVTLHVAANFSVPVVSAPHSPSQDELTFTCTSINGYPRPNVYWINKTDNSLLDQALQNDTVFLNMRGLYDVVSVLRIARTPSVNIGCCIENVLLQQNLTVGSQTGNDIGERDKITENPVSTGEKNAAT |
| 1490 |  |  |  | ICOSL ECD-Fc N155Q/N207Q (Fc fusion) DTQEKEVRAMVGSDVELSCACPEGSRFDLNDVYVYWQTSESKTVVTYHIPQNSSLENVDSRYRNRALMSPAGMLRGDFSLRLFNVTPQDEQKFHCLVLSQSLGFQEVLSVEVTLHVAANFSVPVVSAPHSPSQDELTFTCTSINGYPRPNVYWIQKTDNSLLDQALQNDTVFLNMRGLYDVVSVLRIARTPSVNIGCCIENVLLQQQLTVGSQTGNDIGERDKITENPVSTGEKNAAT |
| 2530 |  |  |  | ICOSL ECD-Fc N119Q/N168Q (Fc fusion) DTQEKEVRAMVGSDVELSCACPEGSRFDLNDVYVYWQTSESKTVVTYHIPQNSSLENVDSRYRNRALMSPAGMLRGDFSLRLFNVTPQDEQKFHCLVLSQSLGFQEVLSVEVTLHVAAQFSVPVVSAPHSPSQDELTFTCTSINGYPRPNVYWINKTDNSLLDQALQQDTVFLNMRGLYDVVSVLRIARTPSVNIGCCIENVLLQQNLTVGSQTGNDIGERDKITENPVSTGEKNAAT |
| 1680 |  |  |  | ICOSL ECD-Fc N52Q/N84Q (Fc fusion) DTQEKEVRAMVGSDVELSCACPEGSRFDLNDVYVYWQTSESKTVVTYHIPQQSSLENVDSRYRNRALMSPAGMLRGDFSLRLFQVTPQDEQKFHCLVLSQSLGFQEVLSVEVTLHVAANFSVPVVSAPHSPSQDELTFTCTSINGYPRPNVYWINKTDNSLLDQALQNDTVFLNMRGLYDVVSVLRIARTPSVNIGCCIENVLLQQNLTVGSQTGNDIGERDKITENPVSTGEKNAAT |
| 1860 |  |  |  | ICOSL ECD-Fc N119Q/N207Q (Fc fusion) DTQEKEVRAMVGSDVELSCACPEGSRFDLNDVYVYWQTSESKTVVTYHIPQNSSLENVDSRYRNRALMSPAGMLRGDFSLRLFNVTPQDEQKFHCLVLSQSLGFQEVLSVEVTLHVAAQFSVPVVSAPHSPSQDELTFTCTSINGYPRPNVYWINKTDNSLLDQALQNDTVFLNMRGLYDVVSVLRIARTPSVNIGCCIENVLLQQQLTVGSQTGNDIGERDKITENPVSTGEKNAAT |
| 737 |  |  |  | ICOSL ECD-Fc N84Q/N168Q/N207Q (Fc fusion) DTQEKEVRAMVGSDVELSCACPEGSRFDLNDVYVYWQTSESKTVVTYHIPQNSSLENVDSRYRNRALMSPAGMLRGDFSLRLFQVTPQDEQKFHCLVLSQSLGFQEVLSVEVTLHVAANFSVPVVSAPHSPSQDELTFTCTSINGYPRPNVYWINKTDNSLLDQALQQDTVFLNMRGLYDVVSVLRIARTPSVNIGCCIENVLLQQQLTVGSQTGNDIGERDKITENPVSTGEKNAAT |
| 921 |  |  |  | ICOSL ECD-Fc N119Q/N168Q/N207Q (Fc fusion) DTQEKEVRAMVGSDVELSCACPEGSRFDLNDVYVYWQTSESKTVVTYHIPQNSSLENVDSRYRNRALMSPAGMLRGDFSLRLFNVTPQDEQKFHCLVLSQSLGFQEVLSVEVTLHVAAQFSVPVVSAPHSPSQDELTFTCTSINGYPRPNVYWINKTDNSLLDQALQQDTVFLNMRGLYDVVSVLRIARTPSVNIGCCIENVLLQQQLTVGSQTGNDIGERDKITENPVSTGEKNAAT |
| 602 |  |  |  | ICOSL ECD-Fc N52Q/N84Q/N119Q/N207Q (Fc fusion) DTQEKEVRAMVGSDVELSCACPEGSRFDLNDVYVYWQTSESKTVVTYHIPQQSSLENVDSRYRNRALMSPAGMLRGDFSLRLFQVTPQDEQKFHCLVLSQSLGFQEVLSVEVTLHVAAQFSVPVVSAPHSPSQDELTFTCTSINGYPRPNVYWINKTDNSLLDQALQNDTVFLNMRGLYDVVSVLRIARTPSVNIGCCIENVLLQQQLTVGSQTGNDIGERDKITENPVSTGEKNAAT |
| 1490 |  |  |  | ICOSL ECD-Fc N84Q/N119Q (Fc fusion) DTQEKEVRAMVGSDVELSCACPEGSRFDLNDVYVYWQTSESKTVVTYHIPQNSSLENVDSRYRNRALMSPAGMLRGDFSLRLFQVTPQDEQKFHCLVLSQSLGFQEVLSVEVTLHVAAQFSVPVVSAPHSPSQDELTFTCTSINGYPRPNVYWINKTDNSLLDQALQNDTVFLNMRGLYDVVSVLRIARTPSVNIGCCIENVLLQQNLTVGSQTGNDIGERDKITENPVSTGEKNAAT |
| 1410 |  |  |  | ICOSL ECD-Fc N168Q (Fc fusion) DTQEKEVRAMVGSDVELSCACPEGSRFDLNDVYVYWQTSESKTVVTYHIPQNSSLENVDSRYRNRALMSPAGMLRGDFSLRLFNVTPQDEQKFHCLVLSQSLGFQEVLSVEVTLHVAANFSVPVVSAPHSPSQDELTFTCTSINGYPRPNVYWINKTDNSLLDQALQQDTVFLNMRGLYDVVSVLRIARTPSVNIGCCIENVLLQQNLTVGSQTGNDIGERDKITENPVSTGEKNAAT |
| 552 |  |  |  | ICOSL ECD-Fc N52Q/N119Q/N155Q (Fc fusion) DTQEKEVRAMVGSDVELSCACPEGSRFDLNDVYVYWQTSESKTVVTYHIPQQSSLENVDSRYRNRALMSPAGMLRGDFSLRLFNVTPQDEQKFHCLVLSQSLGFQEVLSVEVTLHVAAQFSVPVVSAPHSPSQDELTFTCTSINGYPRPNVYWIQKTDNSLLDQALQNDTVFLNMRGLYDVVSVLRIARTPSVNIGCCIENVLLQQNLTVGSQTGNDIGERDKITENPVSTGEKNAAT |
|  | 275 | 76000 | Fold change to WT CD80 (CTLA4 (human)): 0.01 fold; MFI at 33.3 nM (CTLA4 (human)): 1280 MFI; Fold change to WT (CD28 (human) [2]): 0.04 fold; Fold change to WT (PD-L1 (human)): 9.56 fold | CD80 variant A26E/Q33R/E35D/M47L/L85Q/K86E IgV-Fc (Fc fusion) VIHVTKEVKEVATLSCGHNVSVEELEQTRIYWRKDKKMVLTMMSGDLNIWPEYKNRTIFDITNNLSIVILALRPSDEGTYECVVQEYEKDAFKREHLAEVT |
|  | 646 | 33200 | Fold change to WT CD80 (CTLA4 (human)): 1.88 fold; MFI at 33.3 nM (CTLA4 (human)): 336000 MFI; Fold change to WT (CD28 (human) [2]): 0.08 fold; Fold change to WT (PD-L1 (human)): 4.18 fold | CD80 variant E35D/M47L/L85Q IgV-Fc (Fc fusion) VIHVTKEVKEVATLSCGHNVSVEELAQTRIYWQKDKKMVLTMMSGDLNIWPEYKNRTIFDITNNLSIVILALRPSDEGTYECVVQKYEKDAFKREHLAEVT |
|  | 274 | 62700 | Fold change to WT CD80 (CTLA4 (human)): 0.01 fold; MFI at 33.3 nM (CTLA4 (human)): 1170 MFI; Fold change to WT (CD28 (human) [2]): 0.04 fold; Fold change to WT (PD-L1 (human)): 7.89 fold | CD80 variant A26E/Q33L/E35D/M47L/L85Q IgV-Fc (Fc fusion) VIHVTKEVKEVATLSCGHNVSVEELEQTRIYWLKDKKMVLTMMSGDLNIWPEYKNRTIFDITNNLSIVILALRPSDEGTYECVVQKYEKDAFKREHLAEVT |
|  | 264 | 81500 | Fold change to WT CD80 (CTLA4 (human)): 0.01 fold; MFI at 33.3 nM (CTLA4 (human)): 1280 MFI; Fold change to WT (CD28 (human) [2]): 0.03 fold; Fold change to WT (PD-L1 (human)): 10.3 fold | CD80 variant A26E/Q33R/E35D/M47L/L85Q IgV-Fc (Fc fusion) VIHVTKEVKEVATLSCGHNVSVEELEQTRIYWRKDKKMVLTMMSGDLNIWPEYKNRTIFDITNNLSIVILALRPSDEGTYECVVQKYEKDAFKREHLAEVT |
|  | 276 | 39100 |  | CD80 variant Q33K/E35D/M47V/K89E/K93R IgV-Fc (Fc fusion) VIHVTKEVKEVATLSCGHNVSVEELAQTRIYWKKDKKMVLTMMSGDVNIWPEYKNRTIFDITNNLSIVILALRPSDEGTYECVVLKYEEDAFRREHLAEVT |
